B1: ZNF263 (parent)
chain: KPYKCTLCGENFSHRSNLIRHQRI
B2: RHOBTB2 (parent)
chain: HHHHGRDFLLRAASFDVCESVDEA

Variants of: B1
Assay: protein stability index of a GFP-peptide fusion (GPS, HEK-293T) (PSI 1-6); higher = more stable
Settings: c terminus: a fixed tail appended
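Note: lentivirally expressed fusions sorted by FACS into six bins by GFP to DsRed ratio, PSI derived from sequencing read proportions per bin multiplied by bin number.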

Protein stability index, by site and new letter:
R20: T 2.33, V 1.99, W 1.76, Y 1.68
H21: A 2.13, C 2.6, D 2.29, E 2.58, F 2.34, G 1.83, I 1.58, K 2.04, L 1.89, M 2.72, N 3.21, P 1.69, Q 1.14, R 1.78, S 1.89, T 2.22, W 3.53, Y 2.46
Q22: A 2.49, C 2.44, D 2.01, E 1.66, F 2.35, G 1.86, H 3.09, I 2.72, K 2.14, L 2.35, M 3.43, N 2.61, P 1.39, R 3.17, S 2.54, T 2.54, V 2.29, W 2.65, Y 2.91
R23: A 2.57, C 4.48, D 2.73, E 2.67, F 1.66, G 2.49, H 3.28, I 2.48, K 3.08, L 2.82, M 2.88, N 2.63, P 1.33, Q 2.34, S 2.28, T 1.88, V 2.01, W 1.65, Y 2.57
I24: A 2.81, C 3.76, D 3.09, E 3.68, F 1.93, G 2.75, H 2.45, K 2.89, L 2.3, M 2.74, N 3.11, P 2.59, Q 4.56, R 3.16, S 2.53, T 2.64, V 2.63, W 2.4, Y 2.51

Variants of: B2
Assay: as above
Settings: c terminus: a fixed tail appended

Protein stability index: each site, then its substitutions
H4: K 3.25, E 3.96, F 3.38, S 4.15, N 4.15, Y 3.3, M 3.61, D 4.12, G 3.73, P 4.59, A 3.67, I 3.83
E23: M 3.34, N 3.26, K 2.57, I 2.92, H 2.93, R 3.37, T 3.13, Q 3.66, G 3.21, W 2.52
F8: L 4.45, W 3.28, P 5.21, C 4.74, V 4.66, H 5.06, E 4.89, D 5.15, M 4.86, G 4.74, S 4.37, Q 5.04
H2: P 4.49, F 3.69, C 3.43, R 3.9, S 2.62, E 4.75, W 3.35, N 4.52, T 1.8, Y 4.16, M 3.96, G 3.72
H1: F 1.48, R 3.92, D 4.88, V 3.21, L 3.74, W 3.36, A 4.49, C 4.02, G 4.55, E 4.42, T 4.59, M 4.17, Y 3.84, I 3.45
D16: P 3.19, L 2.11, V 2.33, M 2.44, F 1.89, S 3.17, C 1.97, K 2.79, I 2.14, N 3.31, A 3.37
H3: I 3.52, N 4.44, Y 3.51, P 3.56, L 3.62, D 4.67, K 3.04, S 3.83
R6: E 5.07, C 3.51, I 2.12, P 4.19, M 3.49, Y 3, N 4.59, A 4.33, H 4.41, D 4.61
G5: M 3.42, K 4.2, D 4.86, L 2.6, A 3.83, T 4.15, S 4.61, I 3.27, F 1.6, H 4.34, E 4.42
S20: K 4.12, H 2.81, Y 3.21, Q 3.83, V 3.03, I 2.73, C 2.94, N 3.98, L 3.16, P 3.76, M 2.71, A 3.08
V21: I 3.96, L 3.62, M 3.92, W 3.61, H 3.08, C 3.25, P 3.61, S 3.62, R 3.68, D 4.84, Q 4.2, N 4.18, F 3.47, T 3.56, Y 3.66
C18: S 4.06, W 2.48, Q 4.03, G 4.24, F 3.54, D 4.75, V 3.95, M 3.37, Y 2.82, T 3.7
E19: D 3.72, G 3.07, Y 1.74, P 3.06, Q 3.34, K 3, W 2.2, I 2.17, C 2.42, T 2.76, F 2.22, A 2.9, S 2.71
A13: R 3.73, Y 2.87, P 4.66, G 4.33, W 2.45, L 3.2, N 4.38, D 4.51, M 2.49
A12: L 3.14, C 2.4, S 3.29, I 2.54, M 2.96, Q 3.73, F 1.92, W 2.67, K 4.26, N 3.82, P 4.52, H 2.94
D22: H 2.99, M 3.04, P 2.85, C 2.56, Q 3.09, W 1.82, T 3, S 3.44, F 2.21
L9: A 4.98, Y 3.54, F 3.2, E 4.89, N 5.06, G 4.6, M 4.41, Q 5.09, H 5.1, S 4.03
S14: Q 4.17, E 3.89, I 2.73, K 3.17, V 2.84, W 2.66, A 3.55, L 2.88
A24: Y 3.29, W 2.53, F 2.65, D 4.26, N 3.59, S 3.82, C 3.04, H 3.92, E 4.15, L 3.75, P 3.56, V 3.27
L10: D 5.17, A 3.94, G 4.29, K 4.09, S 3.81, N 5.01, Y 3.9, E 5.02
R11: E 5.3, Q 3.94, N 3.87, T 3.72, M 2.38, Y 2.39, C 2.63, K 4.17
D7: K 3.85, T 2.92, H 2.34, S 3.17, Y 2.04, F 2.06, N 3.25
V17: C 4.17, P 4.7, K 3.94, W 3, H 3.55, T 3.53, G 3.99, A 4.04, E 4.56, M 3.68, F 3.12, Q 4.24, Y 4.16, S 4.11
F15: N 4.35, R 4.88, M 4.74, Y 3.92, K 4.58, G 4.38, W 3.94, C 4.57

Reference: the supplement of paper PMC10567573
